Test: soluble on expression in E. coli; label from the status in PepcDB or PDB records

Sequence | soluble on expression in E. coli
MKMYADERREHIYSYIKSHKRATVKQLSDYLSVTEATVRSDLRRLESENKLTRTHGGAKVTENIGSKFNFSYRLTQKHGEKYKISKSALKKIKPQQCIMIDASSTTYELAKLLAETTMELTIITNGLENAVLLKENPHLTVLVVGGFVSQDSNAITGNIDSQILEMYHIDYFFLSANGFTLENGLTDFSLPEVQLKKQMVQESENVIALIDKSKFGVSSTLSFAKISDINEVITDEKPEHKWLKHVPFSVTVAQLEHHHHHH | soluble
MSLNRVLDILKDRSLTYHQQIKDLAAYAESTIEVLNIDDETKKLIDEGCICTLFEGNAPFRPRYIIPDYSLLMEKGCEFLNLSVPEDIWEATNNLLIFYKHVPSITTFPVYLGNIDELLEPFIEDEREAKRAIKLFLKHIDRTLTDSFVHANIGPRETVAGRLILESMDELQCAVPNLSMKYDLENTPESFINLCAKVALSTAKPSFANHKMDVKSFGTDRYAIASCYNGFHIGGGGYTLVRIKLNEVAKKATSVEDFLENVLPYVSTKMIQYIDERIRFLVEETQFFTSNFLVKEGFIQKKLFTGMFGVVGLAEAVNTLLGAEKQSDRFGYSEKANKLGLRIIEKLNKIVSEHEAKHVNCFGGHYVLHAQVGIDLDQNVSPGCRIPVGEEPELFNHIMQSAPFHKYFYNGIGDIFVFEDTYNDHPEALVDIIKGAFNSGIRYMSVYGSGADVVRVTGYLAKRSEVEKLERGEAVLNNTDLFAMGAKNNCHAFERKIREGHHHHHH | soluble
MSIKIKNAVEIEKMRVAGRLAAEVLEMIEPHVKAGVTTEELDQICHKYITEVQGAIPAPLNYHGFPKSICTSINHIVCHGIPASEDTYFGQIQRPAVLRDGDILNIDITVIKDGYHGDTSKMFLIGDVSIEDKRLCHVAQECLYLALKQVKPGVQLGEIGTTIEKHIKTNNKNNPRFKFSIVRDYCGHGIGAEFHEEPQVVHYKNSDRTVLREGMIFTIEPMINAGKFGCRLDDEDSWTVYTADGKKSAQWEHTILVTATGCEILTLRSEESLPRILNNA | not soluble
MLTEIGKIIRQRRQQHGITIEQLAEQSNVSISLISRLERGKVDNIKLQSLTAIAETLNLKIADFFRDELLQSPNVVALLDYLSDLPAHQREELAGTLLKLLRLSKS | not soluble
MSLNELDCLETASIKIDPFTLELSRSLSTAVGDIEQRRGHVVCVDINGTVGIGEATPLPGWTERYPDCQDALRSVSTDSTSTSTSTSTSTSASEITPDTRSAAHHGIELACVDAMARHHDSSLARFLSTDTPATSIPVNATIGDCDSEQTYKKAESAVEDGYTTIKLKVGARDIESDCNRVIAARSAVGEDITLRVDANGAWNRTAAERFLETARTVDIAYIEQPLPASDLDGHALLRGRGVDIAVDESMNRTSPEQIFAADAADIIVCKPMALGGPKQTLAVARKAEAVDIDTVVTTTIDGVIARMGAVHIAAALPGSGSNARACGLATGSMLADDLTANPVSISDGEISVPTGPGLAGGALRSCCNREGHHHHHH | soluble
MPIATPEVYAEMLGQAKQNSYAFPAINCTSSETVNAAIKGFADAGSDGIIQFSTGGAEFGSGLGVKDMVTGAVALAEFTHVIAAKYPVNVALHTDHCPKDKLDSYVRPLLAISAQRVSKGGNPLFQSHMWDGSAVPIDENLAIAQELLKAAAAAKIILEIEIGVVGGEEDGVANEINEKLYTSPEDFEKTIEALGAGEHGKYLLAATFGNVHGVYKPGNVKLRPDILAQGQQVAAAKLGLPADAKPFDFVFHGGSGSLKSEIEEALRYGVVKMNVDTDTQYAFTRPIAGHMFTNYDGVLKVDGEVGVKKVYDPRSYLKKAEASMSQRVVQACNDLHCAGKSLTHHHHHH | soluble
MAHHHHHHMTKSYLNQDQQLRAQQVYTTHKHLKELSMATKEALTYHDKYLAAMEHVMSCLLNNSDALEDARKHLTQEAAVDIQPTFPTAGRLAAAYSNWRVSAELHMMRTELEFLKEVSTTGHEAVKKTKNAVHGLEKVAKKCAHVNSPEFEAKISSKSGKALEKLLHEQRETNTMMMSIENAIKKDMMSLATSWSAKLVTRGDALYTAFRSLGCRTVACFPTTDPTLSQGMPPPAAGYVLSQPSSASTSVPYSGGTAVGHGTPSTLPAAQSVECAAVPLSSAGEGAAAGVKLEFNLNEGKPVSR | soluble
MGSDKIHHHHHHADFVSDYIWRGAYQNSGFSVQPTLGLSYGNLSLSAWGSQSLTKTDGAQEFDINLSYTIGGLGITVTDYWWNGITMPYGDYKHDHHFEGTLAYNFGENFPLTLSWSTMFAGGDDNKDGDRAYSTYINASYNIACPAEITLTPSVGFTPWKGMYDADGAAFTDIALKASKNINITDHFSLPLFVQAIVSPSFDKTYLIAGLSIGF | not soluble
NLHLLEYLHILPLDKIGIPKFAPKLDRKKHGDLDRPNLIYPADEQIYIHVYPDKNDMRNFYIPIEPTLLTGVDELLKEVEIRLVDYITDIDF | not soluble
MTERLEFTESAFEILGRKWNGLIIQSLLDSDRGSLHFAELSRSVHACSDRVLTVRLKELEDAGIIKRVCCPDNGKLGYRLTEKGSSMRPLMSEISRWAAENI | not soluble
DGTADKTKGEVSNDKVSTDEKHVVSLDPNDQSKGKGVVIDNVANGDISATSTDAINGSQLYAVAKGVTNLAGQVNNLEGKVNKVGKRADAGTASALAASQLPQATMPGKSMVAIAGSSYQGQNGLAIGVSRISDNGKVIIRLSGTTNSQGKTGVAAGVGYQW | soluble
GPGSMFFLTRFKLGMADVTAAIGSGKCGEVLRKLNEKKAVREREENIDYRRALCFLANSQDVFHARQALLEELRHFPNNTAARTLLLEVNETVRPLLMPPKELLKSEPLFGLLCDALLDHTMLTWTRLYSLYRLSKEVCSKEGEGGALMECGVSGGGSVVLLAVVAAHYSKKPRKIYALDTFSGMPEPTTHDNLEEDGNLKPAESTSWGSGTCSATVENVRQLAKNFDVEEGLVVIPGLFHETMPKTLREISDEGISMLHVDADWYESTRCALELAWPMVKQGGMVQVDDYHYWLGCRKAVDEFAQREESEHRPLPILQNVDGNAVYFTKP | not soluble
MVIELKNEKVTVQFKEFGGALSSIKDQDGIEYLWQGNPAYWSSQAPVLFPICGSLRNDKGIYTSKKHSHRYGSIPRHGLVRKKNFRFEQLGKDSVVFTITPDKEMLMQYPYHFELKIIYTLKHTTIRTEYQVINKEKESIMPYFIGGHPGLNCPLFAGDRYEDYYLEFEKEETCTVPKSFPDTGLLDLQDRKIFLKGQKYLDLDYSLFTHDAITLDNLQSRSVSLRSKNHGGGLRLDFADFPYLILWSTANKSPFIALEPWSGLSTAVDESDYFEEKRNVSFVEPGQFDRNYFDITVLLEHHHHHH | soluble
MSLTAPLRAGQMNFYDEPYNPVLNLHIQPSVKDENQRSTWPIIDTSNTSTQIARAHFEKHPPNNLRKSNFFHFVIALYDRNSQPIEVERTQFAGFVEKEKEVDGQDTRNGIHYRLSLMFQNGIRSEHDLFVRLIDSSTKQAITYEGQDKNPEMCRVLLTHEVMCSRCCEKKSCGNRNETPSDPVIIDRFFLKFFLKCNQNCLKNAGNPRDMRRFQVVLCSSARIDGPLLAVSDNMFVHNNSKHGRRTKRTDASDDSEYSESAELPSSVPVIKALFPSEGWIQGGTQVVLIGENFFEGLQVAFGTASPNWGESVQLISPHAIRVTTPPKHSAGPVDVTLQYKSKTYSRGTPLRFSYITLAEPGIEYGFQRLQKLLPKYPGDPERLPKDQILKRAAELAEALYNRTSTESLSSYYHTQFDATSDYAARTHTSPRSTLPYGAGPPALSSAVYQTSYPTVNATPAANFLNTQTGFATFGAVNPFAATLQSSSRLS | not soluble
MSLRSSFRVGVTEDRNKKCRRTMEDTHAYLYNFLGNPVPSAQNDDSDQSSHPSDASPKTGELTPIVETDNGYFAIFDGHAGTFAAQWCGKKLHLILEDVMRKNINAPVPELLDQTFTSVDQQLEKLPVKNSGCTAVVALLRWEDRIPTPSSVTGSSAIGPAAVAATKAGADSKADDTPTQEAAATPVPAIPPKLREKAIRQRVLYTANVGDARVILCRNGKALRLSYDHKGSDENEGRRIANAGGLIMNNRVNGVLAVTRALGDAYIKDLVTGHPYTTETVIQPDLDEFIILASDGLWDVCSDQEAVDLIRNVSDAQEASKILVDHALARFSTDNLSCMVIRLYADREGHHHHHH | soluble
MGSDKIHHHHHHMKFCIIGYPVRHSISPRLYNEYFKRAGMNHSYGMEEIPPESFDTEIRRILEEYDGFNATIPHKERVMRYVEPSEDAQRIKAVNCVFRGKGYNTDWVGVVKSLEGVEVKEPVVVVGAGGAARAVIYALLQMGVKDIWVVNRTIERAKALDFPVKIFSLDQLDEVVKKAKSLFNTTSVGMKGEELPVSDDSLKNLSLVYDVIYFDTPLVVKARKLGVKHIIKGNLMFYYQAMENLKIWGIYDEEVFKEVFGEVLK | not soluble
MSRLPTTPCEQLKLDNQLCFALYSTSLQMTKVYKPLLQALGLTYPQYIAMLVLWERDGLTVGEISARMLTDPGSLTPLLKRLEGEGLITRTRSSEDERVVLLRLTDKGRALQRQAESIPACILESTGLDLPQLVALKDELLALRGNLQAPD | not soluble
MNKEMTLLPPPELVQYVGGDFKKVGKEFLKHFIQIGALKSNEKVLDVGCGVGRMAVPLMNYLNDDGAYYGFDLFKDGITWCQNNISTMRNNFHFEHVDIYNQFYNPEGKEDASQYRFPYEDGTFDFIFLTSVFTHLLPKELEHYVSEIVRVLKKDGRCFITFFLINPESSYYLNAGQSTLGFYHRIENCYVVNKDIPNFAVAYPETDICNLLNKYGLEIINKPHYGLWCGRHEYTSYQDIVLTKKSLEHHHHHH | not soluble
GPGSMSTSQPIVKPFIYLRIPSEDARPVEELHFNGHNEAELRHTLTRCFRQSLLSDDQKKDMARHLADKASESAKKHAVKGNGDASAAGSGAEPPVDVEQQQAAMIDQYLEQASYEIIPVTMPMRSTQYIGTSLYIDDSGAFKDLPLNYRASKLAQREIRGDAFLLSNHDDPALDEWGRVDCPLQRYEELYANPPQIAYDPSNQAQMTQAAMLRETETKKISLEDYEKAQKAKEDGNRLFAANDLPAAVQAYSMTVDLTDGRRDLLPNEEAATQLRLSALLNRCLCFTRLKKFPEAVRDAQAAAYLDPKSMKAYYRLTYALCGAQEYEAAAQACEKYAQLGGAEEDVTAMRTAVAAGETEVKKAQKQIFSKMFRS | soluble
MAHHHHHHMNNSLLGSLFAKRTKEPRDLDAAEMPQLRTGRSRASSESSTTSARSQRDGKKKKQQRRHPGKRRDAQDSDSGDEGVRQHSTPLTSPAPHPRASSVGSEFSDIEENPRPRNQRRSSGKVLRSSGTVAGAEKAKADERPPMAHSTPEVLPGADNLATNPLGEAGAGGEGAAGGQRHLPPMSQSAPMTSGRGSAAETVAVLRKEGSIEASQQQASTLTAGQLCGVAANSTVSFSGDDAAVLGASLNNTCSAATTISHHPTQPLAPAPGSSSGSPEDHKGSPPRACSSAEEGKKCDNRDSNTRRAVSGKDGEEMTHVDTEKQQPHDRSGDTPDRDVGASGKAWEGQRDATSAVEKDTHPLLDTASLRHTLDSFGSRPSSKLRRRSLGIGGSSKCVPAMLDRSRDGDGTSMTPSDGDEILKGLSFFNAASGEFVLTNHDIHSLEAFLFGTRALVVHINDLQKALLEMQHATDLARLL | not soluble
METEIKRTSTKDIIAYLTEKFPECFSIKGPVKPLKIGIFQDLAEKLDDDETVSKTRLRQALRHYTSSWRYLKVIKVGNSRVDVDGKDVAEIDEDQAAYASKTLKESQEKFGNKKATDNDAKKPYKGKQGSTEAANNKPADKKRESTKFKTVKSTPKKTVKKEVEPLKSVESTTINVGSKVRVQLGNSPMKATITEISGKDISVQLDSGMVIKTQLQNIYL | not soluble

Source: the DeepSol protein solubility set
